According to IntAct's records for PubMed 16304051:

B1: Multiple coagulation factor deficiency protein 2 (Homo sapiens), Q8NI22 (parent)
chain: MTMRSLLRTPFLCGLLWAFCAPGARAEEPAASFSQPGSMGLDKNTVHDQEHIMEHLEGVINKPEAEMSPQELQLHYFKMHDYDGNNLLDGLELSTAITHVHKEEGSEQAPLMSEDELINIIDGVLRDDDKNNDGYIDYAEFAKSLQ
partner: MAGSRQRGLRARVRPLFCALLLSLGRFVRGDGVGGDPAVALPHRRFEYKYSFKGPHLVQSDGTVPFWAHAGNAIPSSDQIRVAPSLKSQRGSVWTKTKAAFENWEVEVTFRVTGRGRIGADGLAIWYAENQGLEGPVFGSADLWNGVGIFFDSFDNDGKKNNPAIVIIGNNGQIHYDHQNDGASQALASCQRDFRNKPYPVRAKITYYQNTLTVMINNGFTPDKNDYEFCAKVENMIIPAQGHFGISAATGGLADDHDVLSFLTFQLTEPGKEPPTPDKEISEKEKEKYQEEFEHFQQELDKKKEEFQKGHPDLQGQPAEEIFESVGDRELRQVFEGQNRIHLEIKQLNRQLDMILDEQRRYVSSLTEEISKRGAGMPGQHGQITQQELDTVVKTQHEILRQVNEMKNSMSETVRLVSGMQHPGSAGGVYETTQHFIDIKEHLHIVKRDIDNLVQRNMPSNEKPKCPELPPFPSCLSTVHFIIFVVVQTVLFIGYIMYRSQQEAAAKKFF

Variants of: B1
Conditions: with lman1_human LMAN1, P49257

Row | effect of a mutation on the interaction | Variant
1 | with no effect | I136T
